From US20030219410A1 (TRANSGENE S A, published 2003)

Molecular target: T1, recombinant PML (wild-type 69 kDa isoform PML, PML3B) (UniProt P29590 1-560)
T1 construct: Untagged protein used in the co-transfection and co-localisation experiments; also called Promyelocytic Leukemia Protein
T1 sequence: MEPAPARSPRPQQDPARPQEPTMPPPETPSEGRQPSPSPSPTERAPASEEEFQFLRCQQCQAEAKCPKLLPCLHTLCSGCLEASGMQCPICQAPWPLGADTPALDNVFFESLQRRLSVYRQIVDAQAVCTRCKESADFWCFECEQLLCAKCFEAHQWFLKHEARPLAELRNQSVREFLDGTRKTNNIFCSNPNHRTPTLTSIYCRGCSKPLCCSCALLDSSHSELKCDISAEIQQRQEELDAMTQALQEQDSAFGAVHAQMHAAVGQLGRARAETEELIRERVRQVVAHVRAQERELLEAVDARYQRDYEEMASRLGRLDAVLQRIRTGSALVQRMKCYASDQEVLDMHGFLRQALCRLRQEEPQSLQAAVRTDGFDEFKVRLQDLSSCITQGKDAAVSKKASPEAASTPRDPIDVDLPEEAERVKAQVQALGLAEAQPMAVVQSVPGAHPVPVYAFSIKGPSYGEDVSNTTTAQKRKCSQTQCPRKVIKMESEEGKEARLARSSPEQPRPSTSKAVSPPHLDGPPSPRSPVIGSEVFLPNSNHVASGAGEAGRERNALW
Assay: co-localisation by immunostaining and EM in transiently co-transfected cells

B1: recombinant wt pIX protein (other)
chain: MSTNSFDGSIVSSYLTTRMPPWAGVRQNVMGSSIDGRPVLPANSTTLTYETVSGTPLETAASAAASAAAATARGIVTDFAFLSPLASSAASRSSARDDKLTALLAQLDSLTRELNVVSQQLLDLRQQVSALKASSPPNAV
notes: Untagged protein used in the co-transfection and co-localisation experiments
  binding result: binds
